Patent US20210213134
Positions count from the first letter of the chain named.

B1: Azido-C35STRX (C35STRX with azido-PEG linkers on Lys residues, reduced) (protein)
chain: MVKQIESKTAFQEALDAAGDKLVVVDFSATWCGPSKMIKPFFHSLSEKYSNVIFLEVDVDDCQDVASECEVKCMPTFQFFKKGQKVGEFSGANKEKLEATINELV
B2: native human thioredoxin-1 (TRX) (protein)
chain: B1 chain with S35C

Biological target: insulin (fully disulfide-bonded heterodimeric insulin)

Row | Protein | activity in the insulin assay as compared to unreacted reduced C35STRX | insulin disulfide bond reduction activity
1 | B1 | the conjugated material retained about 33% of its activity in the insulin assay as compared to unreacted reduced C35STRX | 
2 | B2 |  | GSH is capable of restoring insulin disulfide bond reduction activity to oxidized TRX (FIG. 1)
